Experiment in all cases: holdup assay
What all share (design): key: below the threshold = too weak to quantify, mostly under pKd 3.1 to 4

The target of assay [1] is T1, SNTA1, Q13424.
T1 sequence (Q13424 82-180, limits assumed, looked up): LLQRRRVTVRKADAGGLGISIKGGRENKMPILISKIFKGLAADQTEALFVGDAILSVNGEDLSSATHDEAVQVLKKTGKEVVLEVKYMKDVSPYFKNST

Assay [2] deals with MAGI2_5, Q86UL8.
The target of assay [3] is T2, APBA1_1, Q02410.
T2 sequence (Q02410 651-752, limits assumed, looked up): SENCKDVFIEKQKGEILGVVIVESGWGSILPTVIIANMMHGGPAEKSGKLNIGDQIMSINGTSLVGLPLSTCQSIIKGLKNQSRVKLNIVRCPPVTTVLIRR

For assay [4], the target named is T3, RAPGEF6, Q8TEU7.
T3 sequence (Q8TEU7 525-625, limits assumed, looked up): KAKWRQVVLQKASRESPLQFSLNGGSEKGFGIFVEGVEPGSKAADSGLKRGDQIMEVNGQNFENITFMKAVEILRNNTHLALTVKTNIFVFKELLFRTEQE

Assay [5] has as its target T4, HTRA4, P83105.
T4 sequence (P83105 378-476, limits assumed, looked up): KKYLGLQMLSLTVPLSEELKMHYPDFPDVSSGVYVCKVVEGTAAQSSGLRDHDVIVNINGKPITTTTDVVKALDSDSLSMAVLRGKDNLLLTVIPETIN

For assay [6], the target named is T5, PDZD7_3, Q9H5P4.
T5 sequence (Q9H5P4 857-944, limits assumed, looked up): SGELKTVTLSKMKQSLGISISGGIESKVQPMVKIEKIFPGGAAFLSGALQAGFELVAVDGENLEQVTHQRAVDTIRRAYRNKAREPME

Assay [7] concerns the target T6, DFNB31_3, Q9P202.
T6 sequence (Q9P202 811-907, limits assumed, looked up): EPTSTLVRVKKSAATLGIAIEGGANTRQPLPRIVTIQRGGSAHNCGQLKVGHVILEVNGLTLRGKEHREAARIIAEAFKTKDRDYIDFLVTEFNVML

Assay [8] deals with T7, TIAM2, Q8IVF5.
T7 sequence (Q8IVF5 885-986, limits assumed, looked up): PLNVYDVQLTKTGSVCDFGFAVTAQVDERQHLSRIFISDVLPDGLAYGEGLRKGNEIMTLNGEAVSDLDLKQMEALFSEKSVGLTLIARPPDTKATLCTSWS

The target of assay [9] is DLG1_3, Q12959.
Assay [10] has as its target Inadl_3, Q8NI35.
Assay [11] has as its target Inadl_4, Q8NI35.
Assay [12] addresses T8, TX1BP3, O14907.
T8 sequence (O14907 10-122, limits assumed, looked up): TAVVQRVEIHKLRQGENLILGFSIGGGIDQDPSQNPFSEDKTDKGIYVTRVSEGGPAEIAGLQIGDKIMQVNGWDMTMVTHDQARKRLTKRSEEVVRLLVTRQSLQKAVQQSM

The target of assay [13] is DLG1_1, Q12959.
Assay [14] concerns the target Inadl_9, Q8NI35.
Assay [15] addresses T9, APBA2_1, Q99767.
T9 sequence (Q99767 563-664, limits assumed, looked up): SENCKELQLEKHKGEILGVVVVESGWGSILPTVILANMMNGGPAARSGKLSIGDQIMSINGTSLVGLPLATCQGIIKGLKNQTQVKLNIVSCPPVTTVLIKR

Assay [16] concerns the target MAGI1_2, Q96QZ7.
The target of assay [17] is DLG4_1, P78352.
Chain of DLG4_1, P78352 (P78352 62-152): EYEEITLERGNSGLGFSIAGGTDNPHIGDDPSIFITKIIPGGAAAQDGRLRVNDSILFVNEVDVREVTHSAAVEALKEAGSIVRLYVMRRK
For assay [18], the target named is T10, SYNJ2BP, P57105.
T10 sequence (P57105 8-110, limits assumed, looked up): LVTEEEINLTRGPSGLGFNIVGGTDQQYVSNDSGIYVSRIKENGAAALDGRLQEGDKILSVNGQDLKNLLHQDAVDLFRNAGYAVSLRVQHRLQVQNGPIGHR

For assay [19], the target named is T11, GRIP1_2, Q9Y3R0.
T11 sequence (Q9Y3R0 145-248, limits assumed, looked up): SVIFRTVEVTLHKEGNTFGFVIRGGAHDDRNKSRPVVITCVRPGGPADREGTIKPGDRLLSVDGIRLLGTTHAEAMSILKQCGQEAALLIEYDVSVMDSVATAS

Assay [20] addresses T12, APBA2_2, Q99767.
T12 sequence (Q99767 654-744, limits assumed, looked up): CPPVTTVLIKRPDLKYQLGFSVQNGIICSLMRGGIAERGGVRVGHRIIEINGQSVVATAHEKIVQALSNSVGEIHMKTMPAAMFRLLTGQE

Assay [21] has as its target T13, GRIP1_3, Q9Y3R0.
T13 sequence (Q9Y3R0 247-346, limits assumed, looked up): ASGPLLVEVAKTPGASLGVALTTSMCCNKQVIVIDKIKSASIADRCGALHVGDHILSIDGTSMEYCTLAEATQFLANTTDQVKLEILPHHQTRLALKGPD

Assay [22] concerns the target T14, LIN7C, Q9NUP9.
T14 sequence (Q9NUP9 88-185, limits assumed, looked up): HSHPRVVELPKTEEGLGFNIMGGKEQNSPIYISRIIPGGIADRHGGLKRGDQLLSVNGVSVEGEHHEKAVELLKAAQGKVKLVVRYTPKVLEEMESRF

Setting [23] is: plain residues with an end cap or a label only (N-terminal biotin on a linker: ahx).
[24] abbreviates: plain residues with an end cap or a label only (N-terminal biotin on a linker: ttds).
Setting [25] is: plain residues with an end cap or a label only (N-terminal biotin on a linker: ado-ado).

Chain of Inadl_9, Q8NI35 (Q8NI35 1530-1615): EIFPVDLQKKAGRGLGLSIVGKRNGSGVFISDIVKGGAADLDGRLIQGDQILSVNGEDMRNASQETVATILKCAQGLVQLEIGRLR
Chain of MAGI1_2, Q96QZ7 (Q96QZ7 456-580): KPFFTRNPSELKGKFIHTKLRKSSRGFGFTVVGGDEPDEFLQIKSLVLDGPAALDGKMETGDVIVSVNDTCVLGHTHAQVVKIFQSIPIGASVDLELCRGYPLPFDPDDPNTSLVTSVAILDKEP
Chain of Inadl_4, Q8NI35 (Q8NI35 547-651): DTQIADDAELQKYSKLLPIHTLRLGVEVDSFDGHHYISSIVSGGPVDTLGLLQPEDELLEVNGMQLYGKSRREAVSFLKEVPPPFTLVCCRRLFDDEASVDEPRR
Chain of MAGI2_5, Q86UL8 (Q86UL8 915-1017): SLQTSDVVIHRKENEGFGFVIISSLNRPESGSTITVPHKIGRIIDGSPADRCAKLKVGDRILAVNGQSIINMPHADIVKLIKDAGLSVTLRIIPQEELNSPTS
Chain of Inadl_3, Q8NI35 (Q8NI35 359-469): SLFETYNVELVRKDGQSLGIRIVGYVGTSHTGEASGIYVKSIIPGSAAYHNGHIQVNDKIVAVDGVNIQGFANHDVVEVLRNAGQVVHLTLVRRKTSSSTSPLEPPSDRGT

B1: LNX1, Q8TBB1 (peptide)
chain: TIVSWPGTFL
A word on the pKd: it is the Kd on a negative log10 scale, so that one unit is a factor of ten. In the case of B1, the pKd entry in assay [1] (setting [23]) was “below the threshold”; in [2] (setting [23]), “below the threshold”; in assay [3] (setting [23]) it was “below the threshold”; in [4] (setting [23]) it was “below the threshold”; in assay [5] (setting [23]) it was 4; in [6] (setting [23]), 4.13. The pKd entry was “below the threshold” in assay [7] (setting [23]); “below the threshold” in [8] (setting [23]); “below the threshold” in [9] (setting [23]); 3.62 in [10] (setting [23]); “below the threshold” in assay [11] (setting [23]); 4.39 in assay [12] (setting [23]). For the same molecule, the pKd result in assay [13] (setting [23]) was “below the threshold”; in assay [14] (setting [23]) it was “below the threshold”; in assay [15] (setting [23]) it was “below the threshold”; in assay [16] (setting [23]), “below the threshold”; in [17] (setting [23]) it was “below the threshold”; in assay [18] (setting [23]), 4.49. The pKd entry is “below the threshold” in assay [19] (setting [23]), “below the threshold” in assay [20] (setting [23]), “below the threshold” in assay [21] (setting [23]) and 3.47 in assay [22] (setting [23]).

B2: CTNNB1, P35222 (peptide)
chain: NQLAWFDTDL
In the case of B2, the pKd entry in assay [1] (setting [24]), in assay [2] (setting [24]), in assay [3] (setting [24]), in assay [4] (setting [24]), in assay [5] (setting [24]) and in assay [6] (setting [24]) was “below the threshold” each time. In addition, the pKd result in assay [7] (setting [24]) was “below the threshold”; in assay [8] (setting [24]) it was “below the threshold”; in assay [9] (setting [24]), “below the threshold”; in assay [10] (setting [24]), 3.7; in assay [11] (setting [24]), “below the threshold”; in assay [12] (setting [24]) it was 5.99. Moreover, the pKd entry in assay [13] (setting [24]) was “below the threshold”; in assay [14] (setting [24]), “below the threshold”; in [15] (setting [24]), “below the threshold”; in [16] (setting [24]), “below the threshold”; in assay [17] (setting [24]), “below the threshold”; in [18] (setting [24]), 4.09. For the same molecule, the negative logarithm of the Kd (pKd) result in assay [19] (setting [24]), in assay [20] (setting [24]), in [21] (setting [24]) and in assay [22] (setting [24]) was “below the threshold” each time.

B3: ACOT6, Q3I5F7 (peptide)
chain: GKKSVKHSKI
For the molecule B3, the pKd in assay [1] (setting [25]) is 3.55; in assay [2] (setting [25]) it was “below the threshold”; in [3] (setting [25]), “below the threshold”; in [4] (setting [25]), “below the threshold”; in assay [5] (setting [25]), 3.7; in [6] (setting [25]), 4.58. For the same molecule, the pKd in [7] (setting [25]) is 3.85; in assay [8] (setting [25]) it was “below the threshold”; in assay [9] (setting [25]) it was “below the threshold”; in assay [10] (setting [25]) it was “below the threshold”; in [11] (setting [25]), “below the threshold”; in [12] (setting [25]), “below the threshold”. Besides, the pKd result in [13] (setting [25]), in assay [14] (setting [25]), in [15] (setting [25]), in assay [16] (setting [25]), in assay [17] (setting [25]) and in assay [18] (setting [25]) was “below the threshold” throughout. Also, the negative logarithm of the Kd (pKd) result was “below the threshold” in [19] (setting [25]), “below the threshold” in assay [20] (setting [25]), “below the threshold” in [21] (setting [25]) and 3.48 in [22] (setting [25]).

The record behind these values is article PMC9482650, “Quantitative fragmentomics allow affinity mapping of interactomes” (Nature Communications, 2022).
